What was measured:
Details in all cases: remark: other sources report otherwise
[1] = target: T1, pyrene-labeled ADP-actin filaments (chicken breast muscle actin) (chicken), P68139; assay: other fluorescence titration
[2] = target: Mg-ATP-actin monomer (chicken breast muscle actin) (chicken), P68139; assay: inhibition of nucleotide exchange
[3] = target: T1, pyrene-labeled ADP-actin filaments …; assay: other fluorescence titration; remark: listed apart in the source
[4] = target: T1, pyrene-labeled ADP-actin filaments …; assay: stopped-flow fluorescence kinetics

Kd [1]: 340 nM
Kd [2]: 80 nM
Ka of the cooperative model (Kd = 1/(ω*Ka)) [3]: 0.15 µM⁻¹
Kd [3]: 330 nM
binding cooperativity ω [3]: 19.9
kobs (3 µM cofilin, 1 µM filaments) [4]: 73.6 s⁻¹
kon [4]: 1.25e+07 M⁻¹ s⁻¹
B1: wild-type fission yeast cofilin, P78929 1-137 (natural protein)
chain: MSFSGVKVSPECLEAFQELKLGKSLRYVVFKMNDTKTEIVVEKKSTDKDFDTFLGDLPEKDCRYAIYDFEFNLGEGVRNKIIFISWSPDVAPIKSKMVYSSSKDTLRRAFTGIGTDIQATDFSEVAYETVLEKVTRK
modifications: here or on the partner: pyrene (pyrene iodoacetamide) on cysteine-374

— PMC3206353
